From patent US20110171285A1, “Design of Fibrinogen and Fibrinogen Derived Products with Reduced Bacterial Binding by Using Modified Sequences of Fibrinogen Chains” (priority 2009, published 2011)
Like-named read-outs stand apart in the source and are kept apart here.

Experiments:
[1] = biological target: recombinant ClfA229-545 (S. aureus clumping factor A, N2N3 domains), 6xHis tagged (Staphylococcus aureus) (UniProt Q53653)
[2] = biological target: human 17-mer C-terminal Fg γ-chain peptide (…) (human); experiment: human 17-mer peptide
[3] = biological target: human fibrinogen (human) (UniProt P02671)
Sequence of human fibrinogen (human) (P02671 20-629 limits assumed, chain 1 of 3): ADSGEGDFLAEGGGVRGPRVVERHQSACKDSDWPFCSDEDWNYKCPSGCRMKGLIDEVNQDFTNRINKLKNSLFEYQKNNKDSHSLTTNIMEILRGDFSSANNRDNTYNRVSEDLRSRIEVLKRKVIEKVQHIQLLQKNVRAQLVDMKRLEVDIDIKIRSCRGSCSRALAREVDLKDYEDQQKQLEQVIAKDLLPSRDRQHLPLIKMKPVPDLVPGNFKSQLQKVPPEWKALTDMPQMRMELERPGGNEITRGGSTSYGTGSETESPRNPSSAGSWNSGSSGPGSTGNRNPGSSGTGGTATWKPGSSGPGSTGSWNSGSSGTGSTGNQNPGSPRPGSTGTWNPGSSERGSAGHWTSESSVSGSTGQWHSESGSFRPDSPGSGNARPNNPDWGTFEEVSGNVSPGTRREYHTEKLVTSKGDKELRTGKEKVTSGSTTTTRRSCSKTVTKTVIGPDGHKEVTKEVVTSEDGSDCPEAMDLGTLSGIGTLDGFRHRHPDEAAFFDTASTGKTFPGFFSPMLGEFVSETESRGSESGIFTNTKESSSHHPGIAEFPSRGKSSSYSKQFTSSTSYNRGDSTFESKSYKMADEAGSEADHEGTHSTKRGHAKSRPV
Sequence of human fibrinogen (human) (P02675 31-491 limits assumed, chain 2 of 3, further chain): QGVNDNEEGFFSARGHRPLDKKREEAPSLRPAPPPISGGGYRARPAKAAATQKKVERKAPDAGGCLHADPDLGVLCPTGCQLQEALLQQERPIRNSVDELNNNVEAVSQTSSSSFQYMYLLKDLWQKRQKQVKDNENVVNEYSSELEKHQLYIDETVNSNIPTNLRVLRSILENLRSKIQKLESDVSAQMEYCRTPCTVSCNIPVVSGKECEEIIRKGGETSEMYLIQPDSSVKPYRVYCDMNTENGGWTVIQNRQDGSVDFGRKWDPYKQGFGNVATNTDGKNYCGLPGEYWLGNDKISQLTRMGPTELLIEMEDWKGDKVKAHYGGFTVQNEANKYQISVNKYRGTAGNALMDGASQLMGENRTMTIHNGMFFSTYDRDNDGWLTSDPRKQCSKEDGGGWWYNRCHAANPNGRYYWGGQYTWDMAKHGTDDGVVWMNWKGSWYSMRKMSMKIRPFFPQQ
Sequence of human fibrinogen (human) (P02679 other isoform, or with tags, fused parts or gaps limits assumed, chain 3 of 3, further chain): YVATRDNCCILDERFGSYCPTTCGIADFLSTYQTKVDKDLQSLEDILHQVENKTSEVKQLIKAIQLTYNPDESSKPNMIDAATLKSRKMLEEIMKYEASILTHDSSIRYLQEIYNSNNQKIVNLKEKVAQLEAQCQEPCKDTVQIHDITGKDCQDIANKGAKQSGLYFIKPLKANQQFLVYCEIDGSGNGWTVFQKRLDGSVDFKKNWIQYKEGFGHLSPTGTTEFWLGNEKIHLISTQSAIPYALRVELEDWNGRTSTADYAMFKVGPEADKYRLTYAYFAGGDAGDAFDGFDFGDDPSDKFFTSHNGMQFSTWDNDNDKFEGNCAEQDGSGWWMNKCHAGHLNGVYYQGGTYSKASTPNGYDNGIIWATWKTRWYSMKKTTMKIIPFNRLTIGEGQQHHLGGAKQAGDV

[4] = biological target: human 15-mer C-terminal Fg γ-chain peptide (…) (human); experiment: human 15-mer peptide
[5] = biological target: recombinant ClfA229-545 (S. aureus clumping factor A, N2N3 domains), 6xHis tagged (Staphylococcus aureus) (UniProt Q53653); remark: listed apart in the source

Sequence of recombinant ClfA229-545 (S. aureus clumping factor A, N2N3 domains), 6xHis tagged (Staphylococcus aureus) (Q53653 229-545 limits assumed): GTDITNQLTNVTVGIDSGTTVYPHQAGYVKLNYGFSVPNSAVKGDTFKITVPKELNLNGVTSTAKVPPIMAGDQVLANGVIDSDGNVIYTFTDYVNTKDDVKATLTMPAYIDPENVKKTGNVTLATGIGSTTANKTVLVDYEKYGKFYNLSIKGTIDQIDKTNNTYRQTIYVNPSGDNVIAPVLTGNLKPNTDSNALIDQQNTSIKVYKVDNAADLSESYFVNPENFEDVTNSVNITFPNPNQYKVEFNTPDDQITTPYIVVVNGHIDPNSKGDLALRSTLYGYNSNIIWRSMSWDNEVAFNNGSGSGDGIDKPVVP

For “human 15-mer C-terminal Fg γ-chain peptide (…)”, the N [1] was 1.29, the ΔH [1] was -3640 and the ΔS [1] was 8.03.
With “recombinant ClfA229-545 (S. aureus clumping factor A, N2N3 domains), 6xHis tagged (from UniProt Q53653 229-545)” the Kd [2] was 23 µM, the EC50 (read off the curve) [3] was 0.2 µM and the Kd [4] was 40 µM.
For “sheep (ovine) 15-mer C-terminal Fg γ-chain peptide (…)”, the N [5] was 16.2, the ΔH [5] was 1340 and the ΔS [5] was 20.4.
